# Reference: the supplement of paper PMC9112550, “Optimization of the antimicrobial peptide Bac7 by deep mutational scanning” (BMC Biology, 2022)
# Test system: Escherichia coli TOP10
# Test: shrunken log2 fold change of peptide-encoding DNA abundance (4.5 h post-induction vs induction); higher = less antimicrobial activity (less host growth inhibition)
# Conditions: time post-induction: 4.5 h; library: site-saturation at positions 5, 18, 19, 20
# 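Further: peptides expressed intracellularly from a pBAD plasmid library in pooled LB shake-flask culture, induced with 0.3% L-arabinose, DNA abundance read by NGS, three biological replicates, DESeq2 with apeglm shrinkage.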
row,Sequence,shrunken log2 fold change
1,RRIRNRPPRLPRPRPRPDAYPRP,0.068
2,RRIRNRPPRLPRPRPRPDKCPRP,-0.116
3,RRIRNRPPRLPRPRPRPDLHPRP,1.8
4,RRIRNRPPRLPRPRPRPDNEPRP,0.114
5,RRIRNRPPRLPRPRPRPDNFPRP,-0.00141
6,RRIRNRPPRLPRPRPRPDNHPRP,-0.0531
7,RRIRNRPPRLPRPRPRPDNSPRP,-0.188
8,RRIRNRPPRLPRPRPRPDPEPRP,0.211
9,RRIRNRPPRLPRPRPRPDPHPRP,-0.263
10,RRIRNRPPRLPRPRPRPDQIPRP,-0.0823
11,RRIRNRPPRLPRPRPRPDRNPRP,-0.0291
12,RRIRNRPPRLPRPRPRPDSRPRP,-0.0141
13,RRIRNRPPRLPRPRPRPDTHPRP,-0.105
14,RRIRNRPPRLPRPRPRPDTPPRP,0.0123
15,RRIRNRPPRLPRPRPRPDWLPRP,0.156
16,RRIRNRPPRLPRPRPRPDYHPRP,0.00923
17,RRIRNRPPRLPRPRPRPECHPRP,-0.0505
18,RRIRNRPPRLPRPRPRPECNPRP,-0.0153
19,RRIRNRPPRLPRPRPRPEEDPRP,0.659
20,RRIRNRPPRLPRPRPRPEERPRP,-0.116
21,RRIRNRPPRLPRPRPRPEFDPRP,0.0248
22,RRIRNRPPRLPRPRPRPEFQPRP,-0.00325
23,RRIRNRPPRLPRPRPRPEGAPRP,2.8
24,RRIRNRPPRLPRPRPRPEGQPRP,-0.00174
25,RRIRNRPPRLPRPRPRPEHGPRP,-0.0132

row,Sequence,shrunken log2 fold change
1,RRIRNRPPRLPRPRPRPEIYPRP,-0.00989
2,RRIRNRPPRLPRPRPRPEKHPRP,-0.287
3,RRIRNRPPRLPRPRPRPELCPRP,0.232
4,RRIRNRPPRLPRPRPRPEMKPRP,-0.188
5,RRIRNRPPRLPRPRPRPEMRPRP,-0.0181
6,RRIRNRPPRLPRPRPRPEPDPRP,0.0698
7,RRIRNRPPRLPRPRPRPEQLPRP,0.389
8,RRIRNRPPRLPRPRPRPERDPRP,0.157
9,RRIRNRPPRLPRPRPRPERTPRP,-0.00566
10,RRIRNRPPRLPRPRPRPETSPRP,0.24
11,RRIRNRPPRLPRPRPRPEVEPRP,0.154
12,RRIRNRPPRLPRPRPRPEVQPRP,0.0358
13,RRIRNRPPRLPRPRPRPEYKPRP,-0.203
14,RRIRNRPPRLPRPRPRPEYRPRP,-0.159
15,RRIRNRPPRLPRPRPRPFAAPRP,0.0928
16,RRIRNRPPRLPRPRPRPFARPRP,-0.113
17,RRIRNRPPRLPRPRPRPFCDPRP,-0.133
18,RRIRNRPPRLPRPRPRPFCFPRP,0.567
19,RRIRNRPPRLPRPRPRPFCHPRP,-0.476
20,RRIRNRPPRLPRPRPRPFENPRP,-0.0135
21,RRIRNRPPRLPRPRPRPFFRPRP,-0.378
22,RRIRNRPPRLPRPRPRPFGAPRP,0.00377
23,RRIRNRPPRLPRPRPRPFGLPRP,-0.231
24,RRIRNRPPRLPRPRPRPFGVPRP,0.125
25,RRIRNRPPRLPRPRPRPFHQPRP,0.151

row,Sequence,shrunken log2 fold change
1,RRIRNRPPRLPRPRPRPFIGPRP,-0.0677
2,RRIRNRPPRLPRPRPRPFIVPRP,-0.279
3,RRIRNRPPRLPRPRPRPFKDPRP,-0.327
4,RRIRNRPPRLPRPRPRPFKYPRP,-0.133
5,RRIRNRPPRLPRPRPRPFLKPRP,-0.294
6,RRIRNRPPRLPRPRPRPFNCPRP,-0.112
7,RRIRNRPPRLPRPRPRPFNIPRP,0.0411
8,RRIRNRPPRLPRPRPRPFNSPRP,-0.0382
9,RRIRNRPPRLPRPRPRPFNYPRP,-0.752
10,RRIRNRPPRLPRPRPRPFSIPRP,0.000741
11,RRIRNRPPRLPRPRPRPFVCPRP,-0.45
12,RRIRNRPPRLPRPRPRPFVFPRP,-0.0679
13,RRIRNRPPRLPRPRPRPFWAPRP,0.0267
14,RRIRNRPPRLPRPRPRPFWIPRP,0.0948
15,RRIRNRPPRLPRPRPRPGADPRP,0.0958
16,RRIRNRPPRLPRPRPRPGCNPRP,-0.642
17,RRIRNRPPRLPRPRPRPGCTPRP,0.0156
18,RRIRNRPPRLPRPRPRPGECPRP,0.266
19,RRIRNRPPRLPRPRPRPGENPRP,0.185
20,RRIRNRPPRLPRPRPRPGESPRP,-0.111
21,RRIRNRPPRLPRPRPRPGICPRP,0.122
22,RRIRNRPPRLPRPRPRPGLQPRP,-0.113
23,RRIRNRPPRLPRPRPRPGMIPRP,0.00966
24,RRIRNRPPRLPRPRPRPGMYPRP,-0.242
25,RRIRNRPPRLPRPRPRPGPIPRP,0.058

row,Sequence,shrunken log2 fold change
1,RRIRNRPPRLPRPRPRPGQVPRP,0.0381
2,RRIRNRPPRLPRPRPRPGRNPRP,-0.202
3,RRIRNRPPRLPRPRPRPGSMPRP,-0.225
4,RRIRNRPPRLPRPRPRPGSYPRP,-0.442
5,RRIRNRPPRLPRPRPRPHFMPRP,-0.409
6,RRIRNRPPRLPRPRPRPHFSPRP,0.0053
7,RRIRNRPPRLPRPRPRPHGMPRP,-0.0652
8,RRIRNRPPRLPRPRPRPHHEPRP,-0.534
9,RRIRNRPPRLPRPRPRPHIMPRP,-0.122
10,RRIRNRPPRLPRPRPRPHKAPRP,0.00883
11,RRIRNRPPRLPRPRPRPHKMPRP,-0.634
12,RRIRNRPPRLPRPRPRPHLQPRP,-0.198
13,RRIRNRPPRLPRPRPRPHLTPRP,-0.0934
14,RRIRNRPPRLPRPRPRPHMCPRP,-0.0575
15,RRIRNRPPRLPRPRPRPHMFPRP,-0.0579
16,RRIRNRPPRLPRPRPRPHMPPRP,-0.0765
17,RRIRNRPPRLPRPRPRPHMSPRP,0.0135
18,RRIRNRPPRLPRPRPRPHQAPRP,-0.0146
19,RRIRNRPPRLPRPRPRPHRPPRP,0.128
20,RRIRNRPPRLPRPRPRPHRYPRP,-0.345
21,RRIRNRPPRLPRPRPRPHVCPRP,-0.00663
22,RRIRNRPPRLPRPRPRPHVEPRP,-0.326
23,RRIRNRPPRLPRPRPRPHVFPRP,-0.151
24,RRIRNRPPRLPRPRPRPHVIPRP,-0.205
25,RRIRNRPPRLPRPRPRPHVTPRP,-0.357

row,Sequence,shrunken log2 fold change
1,RRIRNRPPRLPRPRPRPHVYPRP,-0.229
2,RRIRNRPPRLPRPRPRPHYCPRP,-0.481
3,RRIRNRPPRLPRPRPRPHYEPRP,0.0239
4,RRIRNRPPRLPRPRPRPIAFPRP,-0.111
5,RRIRNRPPRLPRPRPRPIDRPRP,0.00281
6,RRIRNRPPRLPRPRPRPIHFPRP,-0.263
7,RRIRNRPPRLPRPRPRPIKVPRP,-0.607
8,RRIRNRPPRLPRPRPRPILRPRP,-0.455
9,RRIRNRPPRLPRPRPRPIMTPRP,-0.269
10,RRIRNRPPRLPRPRPRPINFPRP,-0.27
11,RRIRNRPPRLPRPRPRPIPWPRP,-0.102
12,RRIRNRPPRLPRPRPRPIQIPRP,-0.363
13,RRIRNRPPRLPRPRPRPIQQPRP,-0.000431
14,RRIRNRPPRLPRPRPRPISDPRP,-0.0335
15,RRIRNRPPRLPRPRPRPIVNPRP,0.0189
16,RRIRNRPPRLPRPRPRPIVWPRP,0.0313
17,RRIRNRPPRLPRPRPRPKCDPRP,-0.471
18,RRIRNRPPRLPRPRPRPKCGPRP,-0.0686
19,RRIRNRPPRLPRPRPRPKCHPRP,0.0244
20,RRIRNRPPRLPRPRPRPKDFPRP,-0.000911
21,RRIRNRPPRLPRPRPRPKDRPRP,-0.0176
22,RRIRNRPPRLPRPRPRPKFPPRP,-0.0759
23,RRIRNRPPRLPRPRPRPKGAPRP,0.476
24,RRIRNRPPRLPRPRPRPKGPPRP,0.0947
25,RRIRNRPPRLPRPRPRPKGSPRP,-0.0293

row,Sequence,shrunken log2 fold change
1,RRIRNRPPRLPRPRPRPKHFPRP,0.054
2,RRIRNRPPRLPRPRPRPKIMPRP,0.0385
3,RRIRNRPPRLPRPRPRPKIVPRP,-0.0195
4,RRIRNRPPRLPRPRPRPKKMPRP,-0.233
5,RRIRNRPPRLPRPRPRPKKNPRP,-0.0707
6,RRIRNRPPRLPRPRPRPKLWPRP,-0.0235
7,RRIRNRPPRLPRPRPRPKNDPRP,-0.0949
8,RRIRNRPPRLPRPRPRPKPCPRP,0.159
9,RRIRNRPPRLPRPRPRPKPMPRP,0.375
10,RRIRNRPPRLPRPRPRPKPSPRP,0.137
11,RRIRNRPPRLPRPRPRPKQGPRP,0.0554
12,RRIRNRPPRLPRPRPRPKQNPRP,0.0598
13,RRIRNRPPRLPRPRPRPKQQPRP,0.163
14,RRIRNRPPRLPRPRPRPKREPRP,0.0191
15,RRIRNRPPRLPRPRPRPKRLPRP,-0.0121
16,RRIRNRPPRLPRPRPRPKSDPRP,-0.168
17,RRIRNRPPRLPRPRPRPKSVPRP,0.0186
18,RRIRNRPPRLPRPRPRPKTEPRP,-0.067
19,RRIRNRPPRLPRPRPRPKTSPRP,-0.0653
20,RRIRNRPPRLPRPRPRPKVRPRP,-0.0024
21,RRIRNRPPRLPRPRPRPKWFPRP,0.00131
22,RRIRNRPPRLPRPRPRPLCEPRP,-0.107
23,RRIRNRPPRLPRPRPRPLCIPRP,-0.598
24,RRIRNRPPRLPRPRPRPLDRPRP,0.0215
25,RRIRNRPPRLPRPRPRPLDTPRP,-0.0954
